The source of these data is patent publication US20190023793A1.

For the experiment, the target named is human PD-L1 full-length protein on cells (human) (UniProt Q9NZQ7). The experiment can be described thus: cell-based or functional assay.
human PD-L1 full-length protein on cells (human), sequence (Q9NZQ7 19-290): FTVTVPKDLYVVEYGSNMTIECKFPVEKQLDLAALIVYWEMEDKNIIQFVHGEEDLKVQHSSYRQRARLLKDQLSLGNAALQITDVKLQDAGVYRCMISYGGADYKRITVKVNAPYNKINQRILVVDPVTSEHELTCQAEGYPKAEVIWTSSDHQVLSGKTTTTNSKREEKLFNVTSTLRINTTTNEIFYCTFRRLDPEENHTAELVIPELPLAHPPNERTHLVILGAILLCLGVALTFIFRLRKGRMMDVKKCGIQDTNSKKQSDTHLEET

For Atezolizumab (antibody), the MOA NFAT reporter signal (Bio-Glo) at 0.005 nm was 16900, the MOA NFAT reporter signal (Bio-Glo) at 0.015 nm was determined as 18400, the MOA NFAT reporter signal (Bio-Glo) at 0.046 nm came out at 17200 and the MOA NFAT reporter signal (Bio-Glo) at 0.137 nm is 19200. The substance also yielded an MOA NFAT reporter signal (Bio-Glo) at 0.412 nm of 29300, an MOA NFAT reporter signal (Bio-Glo) at 1.235 nm of 70800, an MOA NFAT reporter signal (Bio-Glo) at 3.704 nm of 96900 and an MOA NFAT reporter signal (Bio-Glo) at 11.111 nm of 96500. In addition, the MOA NFAT reporter signal (Bio-Glo) at 33.333 nm came out at 98000 and the MOA NFAT reporter signal (Bio-Glo) at 100.000 nm was 94000.

Durvalumab (antibody) had an MOA NFAT reporter signal (Bio-Glo) at 0.005 nm of 18200, an MOA NFAT reporter signal (Bio-Glo) at 0.046 nm of 20300, an MOA NFAT reporter signal (Bio-Glo) at 0.137 nm of 23200 and an MOA NFAT reporter signal (Bio-Glo) at 0.412 nm of 53100. Besides, the MOA NFAT reporter signal (Bio-Glo) at 1.235 nm turned out to be 89700, the MOA NFAT reporter signal (Bio-Glo) at 3.704 nm stood at 103000, the MOA NFAT reporter signal (Bio-Glo) at 11.111 nm is 97900 and the MOA NFAT reporter signal (Bio-Glo) at 33.333 nm stood at 102000. Besides, the MOA NFAT reporter signal (Bio-Glo) at 100.000 nm is 94100.

IgG1 negative control (antibody) gave an MOA NFAT reporter signal (Bio-Glo) at 100.000 nm, negative control of 15700.
